These results are taken from US20230234987A1.

The target in experiment [1] is His-tagged PP1 (protein phosphatase 1, catalytic subunit). Briefly: plate binding curve: biotinylated peptide on His-PP1 on nickel wells, streptavidin-Alexa Fluor 488.
Experiment [2] shares this target. As to the kind of experiment: competition plate assay: MYPT1 1-299 binding to His-PP1 with increasing PIP250; competitor MYPT1 1-299.
Experiment [3] shares this target. As to the kind of experiment: plate binding curve: MYPT1 1-299 on His-PP1 on nickel wells, streptavidin-Alexa Fluor 488.
Experiment [4] shares this target. The experiment is described as above. This is another data set of the same source.

Consider PIP250 (H-rrfkvktkkrk-NH2) (peptide), for which the Kd – broadly, the concentration at which binding is half-saturated – in experiment [1] came out at 610 µM. Moreover, the Ki (as a rule, the equilibrium dissociation constant of an inhibitor or competing ligand from its target) in experiment [2] was determined as 155 µM.

PIP251 (H-rrakvktkkrk-NH2) (peptide): the dissociation constant (Kd) in experiment [1] was 1280 µM.

For PIP252 (H-rrfkaktkkrk-NH2) (peptide), in experiment [1], the Kd amounted to 724 µM.

In the case of amino acids 1-299 of MYPT1, the Kd in experiment [3] came out at 0.05 µM; in experiment [4], 0.049 µM.
